B1: SC3 (ssRNA)
RNA: GGGAGGAUAUUUUCUCAGACCGUAACAUUACCACAGUUCUAGCAUCCCGCAAUGGUAAGUCCGCAUUGCAGCAUCGUGAACUAGGAUC
B2: SC13 (ssRNA)
RNA: GGGAGGAUAUUUUCUCAGACCGUAAACCUUUUUAGACGAACCUCAAAGUACAUUUAGUUGAAAACUUGCAGCAUCGUGAACUAGGAUC
B3: #42 (ssRNA)
RNA: GGGAGGAUAUUUUCUCAGACCGUAACAUCCUGGUACUCACUUCGACAUCGUACGUUCAAUCAUACUUGCAGCAUCGUGAACUAGGAUC
B4: SC12 (ssRNA)
RNA: GGGAGGAUAUUUUCUCAGACCGUAACUCGCAACAUGACUUCGAAAGUUUAAUCGUUCUUGUCAAUUGCAGCAUCGUGAACUAGGAUC
B5: SC5 (ssRNA)
RNA: GGGAGGAUAUUUUCUCAGACCGUAACUUGAACAUGAUAGGCUUACCCAUAGACAGAUUGACCCUUUUGCAGCAUCGUGAACUAGGAUC
B6: #1-2 (ssRNA)
RNA: GGGAGGAUAUUUUCUCAGACCGUAACAACACCUUGCUUUCCCAAUACCCUGAAAUACAGUCGGAUUUGCAGCAUCGUGAACUAGGAUC
B7: SC11 (ssRNA)
RNA: GGGAGGAUAUUUUCUCAGACCGUAACUUAGUUUCGAUCGAAGCUCAUUGGCCCAGCGUGGAUAACUUGCAGCAUCGUGAACUAGGAUC
B8: #52 (ssRNA)
RNA: GGGAGGAUAUUUUCUCAGACCGUAACUGAUCGUUCAAUGACUAUUCUUUACCUUGAGUAACCGAUUGCAGCAUCGUGAACUAGGAUC
B9: #85 (ssRNA)
RNA: GGGAGGAUAUUUUCUCAGACCGUAACAAGUAUCACGCACUUUCCCAUUCACUGUUAGAGACUGAUUGCAGCAUCGUGAACUAGGAUC
B10: SC9 (ssRNA)
RNA: GGGAGGAUAUUUUCUCAGACCGUAAUGCCUUUAGCUGCGACAAUGAACAGCAUGACCUCACUACUUGCAGCAUCGUGAACUAGGAUC
B11: SC6 (ssRNA)
RNA: GGGAGGAUAUUUUCUCAGACCGUAAGACUCACGAUGGACCAUACGCCUUCCCACUGGUCUUGUUAUUGCAGCAUCGUGAACUAGGAUC
B12: #84 (ssRNA)
RNA: GGGAGGAUAUUUUCUCAGACCGUAAAUCCGCGUACCGGGCUCAAAUGUCACUAUAGUAGAAAGCAUUGCAGCAUCGUGAACUAGGAUC
B13: SC4 (ssRNA)
RNA: GGGAGGAUAUUUUCUCAGACCGUAACCUAGUCUAAUCGAGGCUUUCCCAGUGACAAUGACCCACUUGCAGCAUCGUGAACUAGGAUC
B14: SC2 (ssRNA)
RNA: GGGAGGAUAUUUUCUCAGACCGUAACACGCUCUACAACAGAUUGCGAAUUAACUUACGCUUCAUAUUGCAGCAUCGUGAACUAGGAUC
B15: SC8 (ssRNA)
RNA: GGGAGGAUAUUUUCUCAGACCGUAAGUCCUUCACUAAUGCUUACCAGACACACUAAGAACGUCACUUGCAGCAUCGUGAACUAGGAUC
B16: #1-17 (ssRNA)
RNA: GGGAGGAUAUUUUCUCAGACCGUAAUCCUUAUUUUAUGGCUUUCCCACGCACACAAGCGUCUGCGUUGCAGCAUCGUGAACUAGGAUC
B17: #7-3 (ssRNA)
RNA: GGGAGGAUAUUUUCUCAGACCGUAAAGGUCGGCAUACAGAGUUCCGAAUGCGCGUAACUUCGACUUUGCAGCAUCGUGAACUAGGAUC
B18: #2 (ssRNA)
RNA: GGGAGGAUAUUUUCUCAGACCGUAAGCCUAUGCACGGAGCUUUCCCAGCUACAGAUGAAACCAGCUUGCAGCAUCGUGAACUAGGAUC
B19: SC1 (ssRNA)
RNA: GGGAGGAUAUUUUCUCAGACCGUAAUUGUUCAACCUUGUCUAACAUGAUACCGAUACGGACUACAUUGCAGCAUCGUGAACUAGGAUC
B20: 21 bp double-stranded DNA (dsDNA)
DNA 1: CTCAGGCGTTGACGACAACCC
DNA 2: GGGTTGTCGTCAACGCCTGAG

What follows are binders tested against T1, Ku protein (Ku70/Ku80 heterodimer) (Homo sapiens, UniProt P12956;P13010 P12956:2-609,P13010:2-732) (assay: EMSA). Conditions: tags: none, purified from HeLa cell nuclear extracts.
T1 sequence (P12956 2-609, chain 1 of 2): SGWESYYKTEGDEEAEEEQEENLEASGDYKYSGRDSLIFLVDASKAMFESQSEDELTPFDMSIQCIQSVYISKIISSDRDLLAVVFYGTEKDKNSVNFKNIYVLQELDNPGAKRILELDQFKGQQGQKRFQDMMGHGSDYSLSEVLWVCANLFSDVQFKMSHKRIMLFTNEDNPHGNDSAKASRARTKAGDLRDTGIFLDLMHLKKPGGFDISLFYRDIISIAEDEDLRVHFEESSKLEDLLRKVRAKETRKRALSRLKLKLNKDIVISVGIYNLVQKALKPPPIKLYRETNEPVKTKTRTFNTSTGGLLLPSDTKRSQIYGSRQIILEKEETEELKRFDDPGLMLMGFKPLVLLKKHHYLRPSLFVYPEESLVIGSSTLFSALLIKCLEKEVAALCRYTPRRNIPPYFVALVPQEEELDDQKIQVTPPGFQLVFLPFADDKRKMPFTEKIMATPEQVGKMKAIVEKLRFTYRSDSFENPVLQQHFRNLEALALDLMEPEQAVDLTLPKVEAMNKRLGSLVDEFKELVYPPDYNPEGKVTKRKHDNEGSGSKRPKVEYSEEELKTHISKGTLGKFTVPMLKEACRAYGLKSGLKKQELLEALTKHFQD
T1 sequence (P13010 2-732, chain 2 of 2): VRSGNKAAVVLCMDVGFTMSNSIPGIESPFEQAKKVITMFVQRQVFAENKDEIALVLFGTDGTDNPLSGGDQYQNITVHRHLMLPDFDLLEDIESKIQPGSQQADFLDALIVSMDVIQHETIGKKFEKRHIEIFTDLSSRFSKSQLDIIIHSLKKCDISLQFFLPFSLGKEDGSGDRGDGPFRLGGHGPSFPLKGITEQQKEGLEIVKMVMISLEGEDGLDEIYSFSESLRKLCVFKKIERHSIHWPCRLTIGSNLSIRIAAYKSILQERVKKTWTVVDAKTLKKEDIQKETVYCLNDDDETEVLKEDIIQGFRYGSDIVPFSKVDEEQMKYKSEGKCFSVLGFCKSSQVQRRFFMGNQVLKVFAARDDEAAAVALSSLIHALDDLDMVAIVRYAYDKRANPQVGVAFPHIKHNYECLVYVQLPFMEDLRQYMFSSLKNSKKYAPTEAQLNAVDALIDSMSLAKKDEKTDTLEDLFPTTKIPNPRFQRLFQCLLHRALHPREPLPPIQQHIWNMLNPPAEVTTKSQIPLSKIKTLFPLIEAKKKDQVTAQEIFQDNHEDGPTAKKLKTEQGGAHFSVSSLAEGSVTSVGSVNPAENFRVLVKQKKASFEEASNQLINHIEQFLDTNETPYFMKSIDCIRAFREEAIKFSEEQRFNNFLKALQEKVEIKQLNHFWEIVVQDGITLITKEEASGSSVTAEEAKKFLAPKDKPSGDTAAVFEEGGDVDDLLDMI
With B1 the Kd was 0.8 nM. B2 was tested, and the Kd was 0.8 nM. B3 was tested, and the Kd was 4.5 nM. B4 gave a Kd of 0.5 nM. B5 gave a Kd of 2 nM. B6 gave a Kd of 1.5 nM. In the case of B7, the Kd is reported as over 10 nM. B8 was tested, and the Kd was 3.2 nM. B9 was tested, and the Kd was 0.7 nM. For B10, the Kd was 0.6 nM. In the case of B11, the Kd is reported as 2 nM. With B12 the Kd was 1.8 nM. B13 showed a Kd of 1.7 nM. B14 was tested, and the Kd was 0.8 nM. With B15 the Kd was 0.6 nM. In the case of B16, the Kd is reported as 3.2 nM. With B17 the Kd was 1.8 nM.

These binders were tested against T1, Ku protein (Ku70/Ku80 heterodimer) (assay: EMSA; 5 mM MgCl2). Conditions: tags: none, purified from HeLa cell nuclear extracts.
With B18 the Kd was 0.3 nM.

These binders were tested against T1, Ku protein (Ku70/Ku80 heterodimer) (assay: EMSA; printed as SCI). Conditions: tags: none, purified from HeLa cell nuclear extracts.
B19 gave a Kd of 1.2 nM.

The binders below were run against T1, Ku protein (Ku70/Ku80 heterodimer) (assay: EMSA; binding comparable to round 6 RNA (about 0.3 nM)). Conditions: tags: none, purified from HeLa cell nuclear extracts; label: 5'-32P.
From the text: Binding curves were obtained with EMSA followed by a nonlinear least squares fit of the data. […] A twenty-one base pair double-stranded DNA was end-labeled with T4 polynucleotide kinase.
B20: binds.

The binders below were run against DNA-PK (Ku protein + DNA-PKcs) (Homo sapiens, UniProt P12956;P13010;P78527 P12956:2-609,P13010:2-732,P78527:1-4128) (assay: inhibition; DNA-PK kinase inhibition class A at 16-32 nM RNA). Conditions: tags: none, both purified from HeLa cell nuclear extracts.
B5 was tested, and the activity was at least 85 % inhibition. Binder B6 has an activity of at least 85 % inhibition. In the case of B14, the activity is reported as at least 85 % inhibition. B15 gave an activity of at least 85 % inhibition. For B18, the activity was at least 85 % inhibition. B17 showed an activity of at least 85 % inhibition.
